According to paper PMC11969024 (2025):

B1: peptide HD2 (from tick evasin EVA4) / CCL22 (biotinylated, synthetic) (parent complex)
chain 1: EEDDYTAYAPLTCYFT
chain 2: GPYGANMEDSVCCRDYVRYRLPLRVVKHFYWTSDSCPRPGVVLLTFRDKEICADPRVPWVKMILNKLSQ

Variants of: B1

| Variant | enrichment |
| --- | --- |
| chain 1 F15T | 0.636 log2 (difference from the parental peptide) |
| chain 1 F15P | -1.52 log2 (difference from the parental peptide) |
| chain 1 F15Y | 1.03 log2 (difference from the parental peptide) |
| chain 1 F15D | -4.01 log2 (difference from the parental peptide) |
| chain 1 F15I | -0.829 log2 (difference from the parental peptide) |
| chain 1 F15C | -4.84 log2 (difference from the parental peptide) |
| chain 1 F15K | 0.708 log2 (difference from the parental peptide) |
| chain 1 F15A | 1.19 log2 (difference from the parental peptide) |
| chain 1 T6C | -9.54 log2 (difference from the parental peptide) |
| chain 1 T6N | 1.76 log2 (difference from the parental peptide) |
| chain 1 T6I | -6.01 log2 (difference from the parental peptide) |
| chain 1 T6G | 3.08 log2 (difference from the parental peptide) |
| chain 1 T6Y | -1.26 log2 (difference from the parental peptide) |
| chain 1 D4L | -6.02 log2 (difference from the parental peptide) |
| chain 1 D4V | -8.27 log2 (difference from the parental peptide) |
| chain 1 D4S | -6.14 log2 (difference from the parental peptide) |
| chain 1 D4E | -1.08 log2 (difference from the parental peptide) |
| chain 1 E1Q | -0.35 log2 (difference from the parental peptide) |
| chain 1 E1G | -1.59 log2 (difference from the parental peptide) |
| chain 1 E1S | -1.77 log2 (difference from the parental peptide) |
| chain 1 E1V | -1.89 log2 (difference from the parental peptide) |
| chain 1 E1A | -1.32 log2 (difference from the parental peptide) |
| chain 1 E1H | -2.89 log2 (difference from the parental peptide) |
| chain 1 E1N | -1.54 log2 (difference from the parental peptide) |
| chain 1 E2D | 1.62 log2 (difference from the parental peptide) |

| Variant | enrichment |
| --- | --- |
| chain 1 E2A | -2.53 log2 (difference from the parental peptide) |
| chain 1 E2K | -5.15 log2 (difference from the parental peptide) |
| chain 1 L11N | -4.2 log2 (difference from the parental peptide) |
| chain 1 L11M | 2.52 log2 (difference from the parental peptide) |
| chain 1 L11H | 2.09 log2 (difference from the parental peptide) |
| chain 1 L11D | -5.76 log2 (difference from the parental peptide) |
| chain 1 T16M | 0.731 log2 (difference from the parental peptide) |
| chain 1 T16Q | 1.11 log2 (difference from the parental peptide) |
| chain 1 T16A | 1.77 log2 (difference from the parental peptide) |
| chain 1 T16H | 0.765 log2 (difference from the parental peptide) |
| chain 1 T16G | 1.83 log2 (difference from the parental peptide) |
| chain 1 T16V | -0.0944 log2 (difference from the parental peptide) |
| chain 1 T12I | -0.506 log2 (difference from the parental peptide) |
| chain 1 T12F | -1.02 log2 (difference from the parental peptide) |
| chain 1 T12V | -0.299 log2 (difference from the parental peptide) |
| chain 1 T12M | -0.275 log2 (difference from the parental peptide) |
| chain 1 T12E | -7.95 log2 (difference from the parental peptide) |
| chain 1 Y8C | -9.68 log2 (difference from the parental peptide) |
| chain 1 A9M | -5.79 log2 (difference from the parental peptide) |
| chain 1 A9H | -6.63 log2 (difference from the parental peptide) |
| chain 1 A9T | -3.93 log2 (difference from the parental peptide) |
| chain 1 Y5F | -1.41 log2 (difference from the parental peptide) |
| chain 1 Y5A | -7.07 log2 (difference from the parental peptide) |
| chain 1 Y5N | -6.71 log2 (difference from the parental peptide) |
| chain 1 Y5V | -5.81 log2 (difference from the parental peptide) |

| Variant | enrichment |
| --- | --- |
| chain 1 Y5C | -5.08 log2 (difference from the parental peptide) |
| chain 1 D3Y | -3.98 log2 (difference from the parental peptide) |
| chain 1 D3N | -3.54 log2 (difference from the parental peptide) |
| chain 1 D3V | -6.53 log2 (difference from the parental peptide) |
| chain 1 D3S | -4.38 log2 (difference from the parental peptide) |
| chain 1 D3K | -5.36 log2 (difference from the parental peptide) |
| chain 1 D3T | -3.61 log2 (difference from the parental peptide) |
| chain 1 D3L | -5 log2 (difference from the parental peptide) |
| chain 1 D3M | -3.93 log2 (difference from the parental peptide) |
| chain 1 D3F | -5 log2 (difference from the parental peptide) |
| chain 1 C13Y | -2.53 log2 (difference from the parental peptide) |
| chain 1 C13P | -6.43 log2 (difference from the parental peptide) |
| chain 1 C13L | -6.36 log2 (difference from the parental peptide) |
| chain 1 C13W | -3.31 log2 (difference from the parental peptide) |
| chain 1 Y14M | -1.86 log2 (difference from the parental peptide) |
| chain 1 Y14E | -6.44 log2 (difference from the parental peptide) |
| chain 1 Y14R | -0.04 log2 (difference from the parental peptide) |
| chain 1 Y14W | -0.554 log2 (difference from the parental peptide) |
| chain 1 Y14I | -0.881 log2 (difference from the parental peptide) |
| chain 1 Y14S | 0.0467 log2 (difference from the parental peptide) |
| chain 1 Y14F | -0.133 log2 (difference from the parental peptide) |
| chain 1 P10L | -7.92 log2 (difference from the parental peptide) |
| chain 1 A7Y | -1.54 log2 (difference from the parental peptide) |
| chain 1 A7G | 0.519 log2 (difference from the parental peptide) |
| chain 1 A7L | -0.735 log2 (difference from the parental peptide) |
